Assays:
[1] = molecular target: T1, 人全长PD-1蛋白 (过表达于HEK293T细胞) (human, UniProt Q15116 25-288); assay: flow cytometry on HEK293T cells overexpressing human full-length PD-1, anti-human IgG1-FITC detection
T1 construct: whole, on cells; also called 过表达PD-1的HEK293T细胞

PD-1(ECD)-hFc融合蛋白 [2] = molecular target: T2, PD-1(ECD)-hFc融合蛋白 (human, UniProt Q15116 25-170); assay: ELISA, PD-1(ECD)-hFc coated, serially diluted antibody, HRP-anti-Fab detection; reference: P2-G12 Fab
T2 construct: extracellular domain; It was biotin-labelled for the panning and coated on the plate in the ELISA; also called PD-1(ECD)-hFc蛋白; PD-1蛋白; not shown: hFc (human Fc)
T2 sequence (Q15116 25-170): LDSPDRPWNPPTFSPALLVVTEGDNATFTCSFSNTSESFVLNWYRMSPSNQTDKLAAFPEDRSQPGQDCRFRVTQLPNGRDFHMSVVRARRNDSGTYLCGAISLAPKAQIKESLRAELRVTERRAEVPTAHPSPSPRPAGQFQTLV

PD-1(ECD)-hFc融合蛋白 [3] = molecular target: T2, PD-1(ECD)-hFc融合蛋白; assay: ELISA, PD-1(ECD)-hFc coated, serially diluted antibody, HRP-anti-Fab detection

T1 sequence (Q15116 25-288): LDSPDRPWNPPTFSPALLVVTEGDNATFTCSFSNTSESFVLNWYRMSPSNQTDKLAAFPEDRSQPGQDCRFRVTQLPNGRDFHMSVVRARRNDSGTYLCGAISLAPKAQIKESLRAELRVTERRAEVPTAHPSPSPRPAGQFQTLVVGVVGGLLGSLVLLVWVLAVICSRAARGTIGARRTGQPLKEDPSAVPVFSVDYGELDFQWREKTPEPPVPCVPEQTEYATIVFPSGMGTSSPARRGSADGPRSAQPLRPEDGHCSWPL

B1: P2-G12 IgG1 (antibody, V domains shown)
VH: EVQLVQSGGGLVQPGGSLRLSCAASGFTFSSYSMNWVRQAPGKGLEWVSAISGSGGSTYYADSVKGRFTISRDNSKNTLYLQMNSLRAEDTAVYYCARDPYGSGSYYRGDAFDIWGQGTMVTVSS
VL: ELTQPPSVSVAPGKTARITCGGNNIGSKSVHWYQQKPGQAPVLAIYYDSDRPSGIPERFSGSNSGNTATLTISRVEVGDEADYYCQVWDSVSDVVFGGGTKLTVL
notes: also called 单克隆抗体P2-G12
In the case of B1, the binding result [1] is reported as “binds” and the fold increase of binding ability against the Fab form (PD-1(ECD)-hFc融合蛋白 [2]) is reported as 100 fold.

B2: P2-G12 Fab (Fab, V domains shown)
VH: B1 VH
VL: B1 VL
notes: Fully human Fab from a phage display library, expressed in E. coli HB2151 and purified on Ni-NTA; P2-G12 is the only antibody described; also called PD-1抗体 (Fab形式)
B2: binds (PD-1(ECD)-hFc融合蛋白 [3]).
